According to US20240287154A1, “MC3R AGONIST PEPTIDES” (The Regents of the University of Michigan, priority 2021, published 2024):
Non-standard residues stand in square brackets, D forms with d. Phe(4-Br) = N[C@@H](Cc1ccc(Br)cc1)C(=O)O; Phe(4-Cl) = N[C@@H](Cc1ccc(Cl)cc1)C(=O)O; Phe(4-I) = N[C@@H](Cc1ccc(I)cc1)C(=O)O; NMeY = CN[C@@H](Cc1ccc(O)cc1)C(=O)O; Nle = CCCC[C@H](N)C(=O)O; dAbu = CC[C@@H](N)C(=O)O; Aib = CC(C)(N)C(=O)O

Molecular target: human MC3R (human, UniProt P41968 1-323)
Assay: cell-based or functional assay

Chain of human MC3R (P41968 whole entry): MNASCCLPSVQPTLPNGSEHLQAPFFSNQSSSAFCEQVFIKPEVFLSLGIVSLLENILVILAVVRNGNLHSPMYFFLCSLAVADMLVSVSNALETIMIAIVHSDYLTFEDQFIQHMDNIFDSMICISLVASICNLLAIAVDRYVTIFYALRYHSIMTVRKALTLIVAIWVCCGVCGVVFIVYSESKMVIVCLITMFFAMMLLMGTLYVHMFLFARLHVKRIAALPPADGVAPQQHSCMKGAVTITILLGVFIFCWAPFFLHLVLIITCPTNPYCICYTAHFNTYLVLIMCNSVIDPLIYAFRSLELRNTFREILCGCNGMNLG

| Binder | MC3R cAMP (EC50) | MC3R selectivity (relative to MC4R) |
| --- | --- | --- |
| Ac-[Nle][dA]HFR[dW]DR[dF]K-OH (SMILES CCCC[C@H](NC(C)=O)C(=O)N[C@H](C)C(=O)N[C@@H](Cc1c[nH]cn1)C(=O)N[C@@H](Cc1ccccc1)C(=O)N[C@@H](CCCNC(=N)N)C(=O)N[C@H](Cc1c[nH]c2ccccc12)C(=O)N[C@@H](CC(=O)O)C(=O)N[C@@H](CCCNC(=N)N)C(=O)N[C@H](Cc1ccccc1)C(=O)N[C@@H](CCCCN)C(=O)O) [CTX-1160] | 9.8 nM | 1260 |
| H-YVEGHFR[dW]DRFG-NH2 (SMILES CC(C)[C@H](NC(=O)[C@@H](N)Cc1ccc(O)cc1)C(=O)N[C@@H](CCC(=O)O)C(=O)NCC(=O)N[C@@H](Cc1c[nH]cn1)C(=O)N[C@@H](Cc1ccccc1)C(=O)N[C@@H](CCCNC(=N)N)C(=O)N[C@H](Cc1c[nH]c2ccccc12)C(=O)N[C@@H](CC(=O)O)C(=O)N[C@@H](CCCNC(=N)N)C(=O)N[C@@H](Cc1ccccc1)C(=O)NCC(N)=O) [CTX-1105] | 20 nM | 500 |
| Ac-[Nle][dA]HFR[dW]DRF-NH2 (SMILES CCCC[C@H](NC(C)=O)C(=O)N[C@H](C)C(=O)N[C@@H](Cc1c[nH]cn1)C(=O)N[C@@H](Cc1ccccc1)C(=O)N[C@@H](CCCNC(=N)N)C(=O)N[C@H](Cc1c[nH]c2ccccc12)C(=O)N[C@@H](CC(=O)O)C(=O)N[C@@H](CCCNC(=N)N)C(=O)N[C@@H](Cc1ccccc1)C(N)=O) [CTX-1158] | 2.6 nM | 535 |
| Ac-[Nle][dAbu]HFR[dW]DRFG-OH (SMILES CCCC[C@H](NC(C)=O)C(=O)N[C@H](CC)C(=O)N[C@@H](Cc1c[nH]cn1)C(=O)N[C@@H](Cc1ccccc1)C(=O)N[C@@H](CCCNC(=N)N)C(=O)N[C@H](Cc1c[nH]c2ccccc12)C(=O)N[C@@H](CC(=O)O)C(=O)N[C@@H](CCCNC(=N)N)C(=O)N[C@@H](Cc1ccccc1)C(=O)NCC(=O)O) [CTX-1144] | 6.6 nM | 2630 |
| Ac-[Nle][Aib]HFR[dW]DRFG-OH (SMILES CCCC[C@H](NC(C)=O)C(=O)NC(C)(C)C(=O)N[C@@H](Cc1c[nH]cn1)C(=O)N[C@@H](Cc1ccccc1)C(=O)N[C@@H](CCCNC(=N)N)C(=O)N[C@H](Cc1c[nH]c2ccccc12)C(=O)N[C@@H](CC(=O)O)C(=O)N[C@@H](CCCNC(=N)N)C(=O)N[C@@H](Cc1ccccc1)C(=O)NCC(=O)O) [CTX-1143] | 13.4 nM | 3540 |
| Ac-[Nle][dA]HFR[dW]DRFG-OH (SMILES CCCC[C@H](NC(C)=O)C(=O)N[C@H](C)C(=O)N[C@@H](Cc1c[nH]cn1)C(=O)N[C@@H](Cc1ccccc1)C(=O)N[C@@H](CCCNC(=N)N)C(=O)N[C@H](Cc1c[nH]c2ccccc12)C(=O)N[C@@H](CC(=O)O)C(=O)N[C@@H](CCCNC(=N)N)C(=O)N[C@@H](Cc1ccccc1)C(=O)NCC(=O)O) [CTX-1122] | 1.2 nM | 7700 |
| Ac-[Nle][dA]HFR[dW]DR[dF]G-OH (SMILES CCCC[C@H](NC(C)=O)C(=O)N[C@H](C)C(=O)N[C@@H](Cc1c[nH]cn1)C(=O)N[C@@H](Cc1ccccc1)C(=O)N[C@@H](CCCNC(=N)N)C(=O)N[C@H](Cc1c[nH]c2ccccc12)C(=O)N[C@@H](CC(=O)O)C(=O)N[C@@H](CCCNC(=N)N)C(=O)N[C@H](Cc1ccccc1)C(=O)NCC(=O)O) [CTX-1145] | 52.9 nM | 535 |
| YVXAHFRWDRFG (Nle at 3; D-Ala at 4; D-Trp at 8; D-Arg at 10) [CTX-1126] | 3 nM | 43 |
| YVXAHFRWDRFG (Nle at 3; D-Ala at 4; D-Trp at 8) [CTX-1103] | 4.3 nM | 229 |
| H-YV[Nle][dA]HFR[dW]D-NH2 (SMILES CCCC[C@H](NC(=O)[C@@H](NC(=O)[C@@H](N)Cc1ccc(O)cc1)C(C)C)C(=O)N[C@H](C)C(=O)N[C@@H](Cc1c[nH]cn1)C(=O)N[C@@H](Cc1ccccc1)C(=O)N[C@@H](CCCNC(=N)N)C(=O)N[C@H](Cc1c[nH]c2ccccc12)C(=O)N[C@@H](CC(=O)O)C(N)=O) [CTX-1108] | 12 nM | 79 |
| H-[NMeY]V[Nle][dA]HFR[dW]D-NH2 (SMILES CCCC[C@H](NC(=O)[C@@H](NC(=O)[C@H](Cc1ccc(O)cc1)NC)C(C)C)C(=O)N[C@H](C)C(=O)N[C@@H](Cc1c[nH]cn1)C(=O)N[C@@H](Cc1ccccc1)C(=O)N[C@@H](CCCNC(=N)N)C(=O)N[C@H](Cc1c[nH]c2ccccc12)C(=O)N[C@@H](CC(=O)O)C(N)=O) [CTX-1141] | 2.2 nM | 55 |
| Ac-[Nle][dA]HFR[dW]DR[dF]-NH2 (SMILES CCCC[C@H](NC(C)=O)C(=O)N[C@H](C)C(=O)N[C@@H](Cc1c[nH]cn1)C(=O)N[C@@H](Cc1ccccc1)C(=O)N[C@@H](CCCNC(=N)N)C(=O)N[C@H](Cc1c[nH]c2ccccc12)C(=O)N[C@@H](CC(=O)O)C(=O)N[C@@H](CCCNC(=N)N)C(=O)N[C@H](Cc1ccccc1)C(N)=O) [CTX-1159] | 14.3 nM | 213 |
| YVXAHFRWDRFG (Nle at 3; D-Ala at 4; D-Trp at 8; D-Phe at 11) [CTX-1127] | 2.5 nM | 95 |

Other lines, results leading:

| MC3R cAMP (EC50) | MC3R selectivity (relative to MC4R) | Binder |
| --- | --- | --- |
| 4.8 nM | 937 | Ac-[Nle][dA]H[Phe(4-I)]R[dW]DRFG-OH (SMILES CCCC[C@H](NC(C)=O)C(=O)N[C@H](C)C(=O)N[C@@H](Cc1c[nH]cn1)C(=O)N[C@@H](Cc1ccc(I)cc1)C(=O)N[C@@H](CCCNC(=N)N)C(=O)N[C@H](Cc1c[nH]c2ccccc12)C(=O)N[C@@H](CC(=O)O)C(=O)N[C@@H](CCCNC(=N)N)C(=O)N[C@@H](Cc1ccccc1)C(=O)NCC(=O)O) [CTX-1167] |
| 1.6 nM | 3100 | Ac-[Nle][dA]H[Phe(4-Cl)]R[dW]DRFG-OH (SMILES CCCC[C@H](NC(C)=O)C(=O)N[C@H](C)C(=O)N[C@@H](Cc1c[nH]cn1)C(=O)N[C@@H](Cc1ccc(Cl)cc1)C(=O)N[C@@H](CCCNC(=N)N)C(=O)N[C@H](Cc1c[nH]c2ccccc12)C(=O)N[C@@H](CC(=O)O)C(=O)N[C@@H](CCCNC(=N)N)C(=O)N[C@@H](Cc1ccccc1)C(=O)NCC(=O)O) [CTX-1166] |
| 4.8 nM | 200 | Ac-[Nle][dA]H[Phe(4-I)]R[dW]DRF-NH2 (SMILES CCCC[C@H](NC(C)=O)C(=O)N[C@H](C)C(=O)N[C@@H](Cc1c[nH]cn1)C(=O)N[C@@H](Cc1ccc(I)cc1)C(=O)N[C@@H](CCCNC(=N)N)C(=O)N[C@H](Cc1c[nH]c2ccccc12)C(=O)N[C@@H](CC(=O)O)C(=O)N[C@@H](CCCNC(=N)N)C(=O)N[C@@H](Cc1ccccc1)C(N)=O) [CTX-1169] |
| 19.4 nM | 282 | Ac-[Nle][dA]HFR[dW]DR-NH2 (SMILES CCCC[C@H](NC(C)=O)C(=O)N[C@H](C)C(=O)N[C@@H](Cc1c[nH]cn1)C(=O)N[C@@H](Cc1ccccc1)C(=O)N[C@@H](CCCNC(=N)N)C(=O)N[C@H](Cc1c[nH]c2ccccc12)C(=O)N[C@@H](CC(=O)O)C(=O)N[C@@H](CCCNC(=N)N)C(N)=O) [CTX-1163] |
| 3 nM | 5600 | Ac-[Nle][dA]H[Phe(4-Br)]R[dW]DRFG-OH (SMILES CCCC[C@H](NC(C)=O)C(=O)N[C@H](C)C(=O)N[C@@H](Cc1c[nH]cn1)C(=O)N[C@@H](Cc1ccc(Br)cc1)C(=O)N[C@@H](CCCNC(=N)N)C(=O)N[C@H](Cc1c[nH]c2ccccc12)C(=O)N[C@@H](CC(=O)O)C(=O)N[C@@H](CCCNC(=N)N)C(=O)N[C@@H](Cc1ccccc1)C(=O)NCC(=O)O) [CTX-1165] |
| 2.5 nM | 93 | YVXAHFRWDRFG (Nle at 3; D-Ala at 4; Phe(4-Cl) at 6; D-Trp at 8) [CTX-2121] |
| 26 nM | 67 | Ac-[Nle][dA]H[Phe(4-I)]R[dW]DR-NH2 (SMILES CCCC[C@H](NC(C)=O)C(=O)N[C@H](C)C(=O)N[C@@H](Cc1c[nH]cn1)C(=O)N[C@@H](Cc1ccc(I)cc1)C(=O)N[C@@H](CCCNC(=N)N)C(=O)N[C@H](Cc1c[nH]c2ccccc12)C(=O)N[C@@H](CC(=O)O)C(=O)N[C@@H](CCCNC(=N)N)C(N)=O) [CTX-1170] |
| 2.3 nM | 173 | YVXAHFRWDRFG (Nle at 3; D-Ala at 4; Phe(4-Br) at 6; D-Trp at 8) [CTX-2120] |
| 3.2 nM | 324 | YVXAHFRWDRFG (Nle at 3; D-Ala at 4; Phe(4-I) at 6; D-Trp at 8) [CTX-2122] |
| 1.5 nM | 83 | Ac-[Nle][dA]HFR[dW]GKPV-NH2 (SMILES CCCC[C@H](NC(C)=O)C(=O)N[C@H](C)C(=O)N[C@@H](Cc1c[nH]cn1)C(=O)N[C@@H](Cc1ccccc1)C(=O)N[C@@H](CCCNC(=N)N)C(=O)N[C@H](Cc1c[nH]c2ccccc12)C(=O)NCC(=O)N[C@@H](CCCCN)C(=O)N1CCC[C@H]1C(=O)N[C@H](C(N)=O)C(C)C) [CTX-1164] |
